Like-named read-outs stand apart in the source and are kept apart here.

The target in data set [1] is T1, GLP2 G-protein coupled receptor (Homo sapiens, UniProt O95838).
T1 construct: host or cells: Chem-11 cell
T1 sequence (O95838 1-553): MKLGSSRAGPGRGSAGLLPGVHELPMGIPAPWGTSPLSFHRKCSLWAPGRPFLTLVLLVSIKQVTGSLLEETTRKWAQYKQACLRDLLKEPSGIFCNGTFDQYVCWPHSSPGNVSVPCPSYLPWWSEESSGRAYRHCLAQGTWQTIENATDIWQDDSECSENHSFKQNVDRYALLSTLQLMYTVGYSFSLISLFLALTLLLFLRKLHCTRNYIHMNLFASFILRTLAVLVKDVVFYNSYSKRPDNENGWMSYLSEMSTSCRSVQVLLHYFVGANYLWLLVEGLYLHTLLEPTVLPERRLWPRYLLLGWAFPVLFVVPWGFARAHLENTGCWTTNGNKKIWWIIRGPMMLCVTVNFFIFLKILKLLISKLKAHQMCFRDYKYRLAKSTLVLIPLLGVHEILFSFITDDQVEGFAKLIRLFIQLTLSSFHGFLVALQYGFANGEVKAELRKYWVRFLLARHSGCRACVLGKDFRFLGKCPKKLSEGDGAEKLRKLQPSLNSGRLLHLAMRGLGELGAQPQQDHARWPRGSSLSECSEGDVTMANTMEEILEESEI
The experiment in a line: GLP2R calcium flux potency assay (GPCR Profiler, in vitro receptor binding). Conditions: calcium flux GLP2R cell assay. It counts as cell-based. The procedure:
A receptor binding assay was performed using a GPCR Profiler assay (Millipore) to assess GLP2-2G-XTEN preparations (including AP690). The assay employed a transfected GLP2R cell line (Millipore, Cat #HTS164C) consisting of a Chem-11 human cell stably transfected with the GLP2 G-protein coupled receptor and a G alpha protein that stimulates calcium flux upon agonism of the GLP2 receptor.

For data set [2] the following is noted: rat, in vivo. As for the experimental part: The fusion protein GLP2-2G-XTEN_AE864 was evaluated for its pharmacokinetic properties in Wistar rats following SC administration of two different dosage levels. Prior to the experiment, catheters were surgically implanted into the jugular vein of female Wistar rats. The catheterized animals were randomized into two groups containing three rats each. The fusion protein GLP2-2G-XTEN (lot AP510) was administered to each rat via SC injection as follows: 1) Low Dose 2 mg/kg (25 nmol/kg); or 2) High Dose 16 mg/kg (200 nmol/kg). Blood samples (˜0.2 mL) were collected through the jugular vein catheter from each rat into prechilled heparinized tubes at pre-dose, 0.08, 4, 8, 24, 48, 72, 96, 120 and 168 hours after test compound administration (10 time points). Blood was processed into plasma by centrifugation, split into two aliquots for analysis by ELISA. The samples were analyzed for fusion protein concentration, performed by both anti-XTEN/anti-XTEN sandwich ELISA (AS1602) and anti-GLP2/anti-XTEN sandwich ELISA (AS1705) and the results were analyzed using WinNonLin to obtain the PK parameters. Terminal half life was fit from 48 to 168 hours.

The subject of data set [3] is DSS-induced intestinal colitis in C57Bl/6 mice. Description: Murine acute DSS-induced colitis model. It counts as in vivo, mouse. The procedure: To determine the efficacy of GLP2-XTEN, the GLP2-2G-XTEN-AE864 fusion protein was evaluated in a mouse model of intestinal inflammatory colitis. […] A naïve, non-treated control group (group 1) was given normal drinking water for the duration of the experiment. […] Tissues were fixed in formalin and then transferred to ethanol for staining and histopathology. The anatomical data was analyzed with an ANOVA model with a Tukey/Kramer post-hoc test for pairwise comparisons, with significance at p=0.05.

Data set [4] concerns indomethacin-induced intestinal inflammation in Wistar rats. Format: in vivo, rat. As for the experimental part: Study 2: Intestinal inflammation was induced in eighty male Wistar rats (Harlan Sprague Dawley) using indomethacin administered on Days 0 and 1 of the experiment. The rats were divided into eight treatment groups for treatment according to Table 20. All treatments were administered per the schedule starting on Day-3 of the experiment. Body weights were determined daily. On Day 2 (24 hours post-2nd indomethacin dose), the animals were prepped for sacrifice and analysis. Thirty minutes prior to sacrifice, the rats were injected intravenously with 1 ml 1% Evans Blue dye, in order to visualize ulcers and extent of inflammation by histopathology analysis. The rats were anesthetized and blood samples were removed to determine the concentration of GLP-2-2G-XTEN using the anti-XTEN/anti-GLP2 ELISA method. The rats were euthanized then necropsied and scored by gross examination of the intestines for the presence of adhesions; i.e., none=0, mild=1, moderate=2, or severe=3. The small intestines were removed and the length of each was recorded. In each small intestine, a longitudinal incision was made and the interior was examined. The degree and length of the ulcerated area was recorded as a score; i.e., none=0, few=1, multiple=2, or continuous=3. The fecal material was washed away with saline and blotted to remove excess fluid and each small intestine was weighed then processed for histopathology examination to quantitate the degree of inflammation; i.e., 0.0%=0, 1-33%=1, 34-66%=2, 67-100%=3.

B1: GLP2-2G-XTEN_AE864: fusion protein of GLP-2 with glycine at position 2 linked at the C-terminus to XTEN AE864; sequence of FIG. 28 (SEQ ID NO: 798) (protein)
chain: HGDGSFSDEMNTILDNLAARDFINWLIQTKITDGGSPAGSPTSTEEGTSESATPESGPGTSTEPSEGSAPGSPAGSPTSTEEGTSTEPSEGSAPGTSTEPSEGSAPGTSESATPESGPGSEPATSGSETPGSEPATSGSETPGSPAGSPTSTEEGTSESATPESGPGTSTEPSEGSAPGTSTEPSEGSAPGSPAGSPTSTEEGTSTEPSEGSAPGTSTEPSEGSAPGTSESATPESGPGTSTEPSEGSAPGTSESATPESGPGSEPATSGSETPGTSTEPSEGSAPGTSTEPSEGSAPGTSESATPESGPGTSESATPESGPGSPAGSPTSTEEGTSESATPESGPGSEPATSGSETPGTSESATPESGPGTSTEPSEGSAPGTSTEPSEGSAPGTSTEPSEGSAPGTSTEPSEGSAPGTSTEPSEGSAPGTSTEPSEGSAPGSPAGSPTSTEEGTSTEPSEGSAPGTSESATPESGPGSEPATSGSETPGTSESATPESGPGSEPATSGSETPGTSESATPESGPGTSTEPSEGSAPGTSESATPESGPGSPAGSPTSTEEGSPAGSPTSTEEGSPAGSPTSTEEGTSESATPESGPGTSTEPSEGSAPGTSESATPESGPGSEPATSGSETPGTSESATPESGPGSEPATSGSETPGTSESATPESGPGTSTEPSEGSAPGSPAGSPTSTEEGTSESATPESGPGSEPATSGSETPGTSESATPESGPGSPAGSPTSTEEGSPAGSPTSTEEGTSTEPSEGSAPGTSESATPESGPGTSESATPESGPGTSESATPESGPGSEPATSGSETPGSEPATSGSETPGSPAGSPTSTEEGTSTEPSEGSAPGTSTEPSEGSAPGSEPATSGSETPGTSESATPESGPGTSTEPSEGSAPG
B1: in data set [1], the “potency compared to GLP2-2G” value is reported as “about 2%”. The molecule also came in with a Cl in data set [2] of 0.80 mL/h. Besides, in data set [2], the “T ½” value came to 43.6 h. Further, the Vd in data set [2] stood at 0.21 L/kg. In data set [2] (sc), this molecule displayed a terminal half-life of 37.5 to 49.7 h. The molecule also came in with an AUCInf in data set [2] (sc, 2 mg/kg) of 530 µg·h/mL. For the same molecule, the Vz in data set [2] (sc, 2 mg/kg) is on record as 43.4 mL. Moreover, the “histopathology of small intestine” value in data set [3] (DSS-treated mice, 6 mg/kg qd) is “normal mucosal architecture with elongated villi densely populated with columnar epithelial and goblet cells”. Besides, the “loss of body weight” value in data set [3] (DSS-treated mice, SC days 1-10, peptide BID, fusion protein QD, any dose) is recorded as “neither the mice treated with GLP2-2G peptide nor any of the groups of mice treated with any dose of GLP2-2G-XTEN mice showed a reduced loss of body weight”. The “protection of the intestines from inflammatory effects of DSS” value in data set [3] (conclusion of the experiment) is “protected the intestines from the inflammatory effects of DSS, with maintenance of normal villi and mucosal architecture”. Moreover, the small intestine weight result in data set [3] (high dose group (6 mg/kg), compared to control groups 1 and 2, day 10) is on record as “increase in small intestine weight”; in data set [3] (medium dose group (2 mg/kg), compared to group 1, day 10), “increase in small intestine weight”. In addition, in data set [4] (conclusion of the experiment), the “protection of the intestines from inflammatory effects of indomethacin” value is listed as “provided significant protection to the intestines from the inflammatory effects of indomethacin”. For the same molecule, the “histopathology: protective effects” value in data set [4] (daily bid peptide, once-daily fusion protein) is reported as “most pronounced in the ileum, but were also seen in the jejunum”. The efficacy by regimen entry in data set [4] (daily dosing at 2 mg/kg) was “greatest efficacy”; in data set [4] (single doses of 6 mg/kg or 2 mg/kg), “significant efficacy in some parameters”. Also, the adhesions score entry in data set [4] (once-daily fusion protein, daily bid peptide, FIG. 22B) was “nearly complete protection from adhesions”; in data set [4] (single high-dose 6 mg/kg), “reached statistically significant difference”. Also, the small intestine length result in data set [4] (once-daily fusion protein, daily bid peptide, vs indomethacin-treated vehicle control) is recorded as “reached statistically significant difference”. Further, the total disease score result is listed as “significantly improved scores” in data set [4] (peptide delivered bid, fusion protein delivered qd, vs indomethacin-treated vehicle control) and “significantly improved scores” in data set [4] (single doses at 6 or 2 mg/kg, vs indomethacin-treated vehicle control). Also, the “fusion protein in blood samples (anti-XTEN/anti-GLP2 ELISA)” value in data set [4] (rat, in vivo) was “detectable at Day 2 in all animals of Group 4 and Group 8, and three rats in Group 7”.

The record behind these values is patent US20250388643A1, “GLUCAGON-LIKE PEPTIDE-2 COMPOSITIONS AND METHODS OF MAKING AND USING SAME” (Amunix Pharmaceuticals, Inc., priority 2011, published 2025).
